Experimental data from paper PMC9482650, “Quantitative fragmentomics allow affinity mapping of interactomes” (Nature Communications, 2022).

T1: PDZD7_3, Q9H5P4
T1 sequence (Q9H5P4 857-944, limits assumed, looked up): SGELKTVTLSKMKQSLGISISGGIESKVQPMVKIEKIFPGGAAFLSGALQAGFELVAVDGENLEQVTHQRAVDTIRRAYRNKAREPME

T2: LIN7A, O14910
T2 sequence (O14910 103-200, limits assumed, looked up): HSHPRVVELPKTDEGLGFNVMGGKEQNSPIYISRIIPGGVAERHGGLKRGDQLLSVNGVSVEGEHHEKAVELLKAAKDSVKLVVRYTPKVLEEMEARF

T3: GRIP1_3, Q9Y3R0
T3 sequence (Q9Y3R0 247-346, limits assumed, looked up): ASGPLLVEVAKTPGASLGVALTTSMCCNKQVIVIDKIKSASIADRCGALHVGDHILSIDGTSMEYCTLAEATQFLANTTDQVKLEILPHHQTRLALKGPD

T4: DVL3, Q92997
T4 sequence (Q92997 244-331, limits assumed, looked up): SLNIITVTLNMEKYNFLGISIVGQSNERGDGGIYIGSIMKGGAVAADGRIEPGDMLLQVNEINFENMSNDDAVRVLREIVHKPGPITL

T5: GRIP1_7, Q9Y3R0
T5 sequence (Q9Y3R0 999-1096, limits assumed, looked up): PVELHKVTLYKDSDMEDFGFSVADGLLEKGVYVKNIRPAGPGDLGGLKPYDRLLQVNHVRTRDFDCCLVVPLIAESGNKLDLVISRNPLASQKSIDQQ

T6: CARD11, Q9BXL7
T6 sequence (Q9BXL7 662-765, limits assumed, looked up): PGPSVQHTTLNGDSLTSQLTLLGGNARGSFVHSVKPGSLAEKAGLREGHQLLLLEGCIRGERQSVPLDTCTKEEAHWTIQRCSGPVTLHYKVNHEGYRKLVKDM

T7: MPP7, Q5T2T1
T7 sequence (Q5T2T1 134-230, limits assumed, looked up): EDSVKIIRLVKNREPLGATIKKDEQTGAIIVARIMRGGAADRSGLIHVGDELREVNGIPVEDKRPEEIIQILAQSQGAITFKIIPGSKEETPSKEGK

T8: GRIP1_4, Q9Y3R0
T8 sequence (Q9Y3R0 467-571, limits assumed, looked up): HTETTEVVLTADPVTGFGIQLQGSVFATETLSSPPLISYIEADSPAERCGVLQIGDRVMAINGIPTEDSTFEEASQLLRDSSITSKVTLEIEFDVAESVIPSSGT

T9: SYNJ2BP, P57105
T9 sequence (P57105 8-110, limits assumed, looked up): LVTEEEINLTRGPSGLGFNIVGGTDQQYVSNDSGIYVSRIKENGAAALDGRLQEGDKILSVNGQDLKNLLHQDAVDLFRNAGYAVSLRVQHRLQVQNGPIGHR

T10: SNTG2, Q9NY99
T10 sequence (Q9NY99 68-166, limits assumed, looked up): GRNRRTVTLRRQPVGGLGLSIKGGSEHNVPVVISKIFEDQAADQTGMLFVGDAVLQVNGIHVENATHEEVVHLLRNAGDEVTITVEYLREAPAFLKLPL


Experiments:
Assay in all cases: holdup assay
Design in all cases: key: below the threshold = too weak to quantify, mostly under pKd 3.1 to 4
Details in all cases: plain residues with an end cap or a label only (N-terminal biotin on a linker: ado-ado)
[1] = molecular target: T1, PDZD7_3, Q9H5P4
[2] = molecular target: T2, LIN7A, O14910
[3] = molecular target: T3, GRIP1_3, Q9Y3R0
[4] = molecular target: T4, DVL3, Q92997
[5] = molecular target: DLG1_2, Q12959
[6] = molecular target: T5, GRIP1_7, Q9Y3R0
[7] = molecular target: FRMPD2_1, Q68DX3
[8] = molecular target: DLG4_2, P78352
[9] = molecular target: T6, CARD11, Q9BXL7
[10] = molecular target: T7, MPP7, Q5T2T1
[11] = molecular target: FRMPD2_3, Q68DX3
[12] = molecular target: NHERF4_1, Q86UT5-2
[13] = molecular target: SNX27, Q96L92
[14] = molecular target: MAGI1_2, Q96QZ7
[15] = molecular target: DLG4_3, P78352
[16] = molecular target: T8, GRIP1_4, Q9Y3R0
[17] = molecular target: IL16_3, Q14005
[18] = molecular target: T9, SYNJ2BP, P57105
[19] = molecular target: NHERF4_2, Q86UT5
[20] = molecular target: NHERF4_4, Q86UT5
[21] = molecular target: GRID2IP_2, A4D2P6
[22] = molecular target: IL16_1, Q14005
[23] = molecular target: GRIP2_7, Q9C0E4
[24] = molecular target: MAST1, Q9Y2H9
[25] = molecular target: GRIP2_4, Q9C0E4
[26] = molecular target: Inadl_2, Q8NI35
[27] = molecular target: HTRA2, O43464
[28] = molecular target: T10, SNTG2, Q9NY99

Chain of Inadl_2, Q8NI35 (Q8NI35 238-335): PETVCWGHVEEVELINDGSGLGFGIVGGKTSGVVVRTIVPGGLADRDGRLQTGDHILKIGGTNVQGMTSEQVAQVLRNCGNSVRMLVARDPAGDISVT
Chain of DLG4_2, P78352 (P78352 155-259): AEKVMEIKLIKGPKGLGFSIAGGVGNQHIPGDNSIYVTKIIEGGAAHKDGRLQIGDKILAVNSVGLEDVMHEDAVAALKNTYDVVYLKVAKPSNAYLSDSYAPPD
Chain of MAST1, Q9Y2H9 (Q9Y2H9 962-1065): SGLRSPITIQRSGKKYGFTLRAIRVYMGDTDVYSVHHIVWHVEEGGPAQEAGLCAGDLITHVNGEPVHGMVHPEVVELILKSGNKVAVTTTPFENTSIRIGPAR
Chain of MAGI1_2, Q96QZ7 (Q96QZ7 456-580): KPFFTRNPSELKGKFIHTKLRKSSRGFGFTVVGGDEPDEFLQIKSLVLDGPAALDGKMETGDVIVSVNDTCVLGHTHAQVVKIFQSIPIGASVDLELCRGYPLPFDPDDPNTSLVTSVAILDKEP
Chain of DLG4_3, P78352 (P78352 306-403): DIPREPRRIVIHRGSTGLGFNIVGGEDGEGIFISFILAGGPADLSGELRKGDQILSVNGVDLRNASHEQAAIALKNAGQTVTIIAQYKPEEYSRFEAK
Chain of GRIP2_4, Q9C0E4 (Q9C0E4 446-548): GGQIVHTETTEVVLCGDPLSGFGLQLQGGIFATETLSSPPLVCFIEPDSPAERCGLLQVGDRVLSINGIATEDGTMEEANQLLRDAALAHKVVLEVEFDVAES
Chain of IL16_3, Q14005 (Q14005 1107-1207): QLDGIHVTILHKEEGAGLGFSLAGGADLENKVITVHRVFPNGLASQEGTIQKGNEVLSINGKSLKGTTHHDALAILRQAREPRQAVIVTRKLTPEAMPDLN
Chain of FRMPD2_3, Q68DX3 (Q68DX3 1073-1166): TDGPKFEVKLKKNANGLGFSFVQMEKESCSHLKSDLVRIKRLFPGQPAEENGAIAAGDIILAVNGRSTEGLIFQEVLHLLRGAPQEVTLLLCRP
Chain of DLG1_2, Q12959 (Q12959 314-412): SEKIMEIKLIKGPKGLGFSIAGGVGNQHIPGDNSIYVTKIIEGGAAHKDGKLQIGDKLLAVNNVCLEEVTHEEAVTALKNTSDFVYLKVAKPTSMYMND
Chain of FRMPD2_1, Q68DX3 (Q68DX3 770-861): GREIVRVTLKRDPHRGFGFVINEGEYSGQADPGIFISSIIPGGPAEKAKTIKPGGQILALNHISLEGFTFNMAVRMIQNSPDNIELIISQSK
Chain of NHERF4_4, Q86UT5 (Q86UT5 464-550): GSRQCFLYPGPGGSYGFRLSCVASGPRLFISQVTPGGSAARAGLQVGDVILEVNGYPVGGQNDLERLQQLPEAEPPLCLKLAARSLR
Chain of GRIP2_7, Q9C0E4 (Q9C0E4 934-1023): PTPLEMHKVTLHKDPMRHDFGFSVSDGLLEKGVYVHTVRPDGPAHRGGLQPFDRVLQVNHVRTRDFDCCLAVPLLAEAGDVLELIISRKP
Chain of NHERF4_1, Q86UT5-2 (Q86UT5 other isoform, or with tags, fused parts or gaps): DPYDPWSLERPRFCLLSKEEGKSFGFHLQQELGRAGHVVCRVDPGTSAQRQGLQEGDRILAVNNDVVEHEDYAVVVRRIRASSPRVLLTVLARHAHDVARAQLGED
Chain of NHERF4_2, Q86UT5 (Q86UT5 220-308): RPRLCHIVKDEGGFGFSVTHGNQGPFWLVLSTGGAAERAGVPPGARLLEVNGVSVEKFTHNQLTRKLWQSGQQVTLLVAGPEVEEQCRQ
Chain of GRID2IP_2, A4D2P6 (A4D2P6 272-370): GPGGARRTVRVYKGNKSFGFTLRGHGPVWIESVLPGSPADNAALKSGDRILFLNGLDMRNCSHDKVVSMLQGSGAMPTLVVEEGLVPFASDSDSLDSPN
Chain of IL16_1, Q14005 (Q14005 210-306): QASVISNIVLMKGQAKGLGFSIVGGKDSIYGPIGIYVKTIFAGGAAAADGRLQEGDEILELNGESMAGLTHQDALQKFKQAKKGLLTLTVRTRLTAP
Chain of HTRA2, O43464 (O43464 355-458): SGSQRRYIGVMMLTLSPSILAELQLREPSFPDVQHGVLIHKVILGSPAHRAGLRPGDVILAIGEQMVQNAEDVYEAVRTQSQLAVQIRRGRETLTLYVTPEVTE

Row | Binder | pKd [1] | pKd [2] | pKd [3] | pKd [4] | pKd [5] | pKd [6] | pKd [7] | pKd [8] | pKd [9] | pKd [10] | pKd [11] | pKd [12] | pKd [13] | pKd [14] | pKd [15] | pKd [16] | pKd [17] | pKd [18] | pKd [19] | pKd [20] | other results
1 | REEPDHSTEV [CCRL2, O00421] | 4.31 | below the threshold | below the threshold | 3.48 | 4.77 | 3.56 | below the threshold | 4.66 | below the threshold | below the threshold | below the threshold | 3.53 | 4.73 | below the threshold | below the threshold | below the threshold | below the threshold | 5.14 | below the threshold | below the threshold | pKd [21]: 4.15; pKd [22]: 3.59; pKd [23]: below the threshold; pKd [24]: 4.74; pKd [25]: below the threshold; pKd [26]: below the threshold; pKd [27]: 3.54; pKd [28]: 3.73
2 | LAHVKHKEQI [AQP3, Q92482] | below the threshold | below the threshold | below the threshold | below the threshold | below the threshold | below the threshold | below the threshold | below the threshold | below the threshold | below the threshold | below the threshold | below the threshold | below the threshold | below the threshold | below the threshold | below the threshold | below the threshold | below the threshold | below the threshold | below the threshold | pKd [21]: below the threshold; pKd [22]: below the threshold; pKd [23]: below the threshold; pKd [24]: below the threshold; pKd [25]: below the threshold; pKd [26]: below the threshold; pKd [27]: below the threshold; pKd [28]: below the threshold

Second part, led by results:

Row | pKd [1] | pKd [2] | pKd [3] | pKd [4] | pKd [5] | pKd [6] | pKd [7] | pKd [8] | pKd [9] | pKd [10] | pKd [11] | pKd [12] | pKd [13] | pKd [14] | pKd [15] | pKd [16] | pKd [17] | pKd [18] | pKd [19] | pKd [20] | Binder | other results
3 | 4.5 | below the threshold | below the threshold | below the threshold | 4.74 | below the threshold | below the threshold | 4.64 | below the threshold | below the threshold | below the threshold | 3.7 | 3.85 | 5.41 | 4.4 | below the threshold | below the threshold | 4.61 | below the threshold | below the threshold | RFQQRMQTHV [KIRREL1, Q96J84] | pKd [21]: 3.96; pKd [22]: below the threshold; pKd [23]: 3.52; pKd [24]: 4.76; pKd [25]: below the threshold; pKd [26]: below the threshold; pKd [27]: below the threshold; pKd [28]: below the threshold
4 | 4.63 | below the threshold | below the threshold | 3.88 | 4.45 | below the threshold | below the threshold | 4.49 | below the threshold | below the threshold | below the threshold | 3.59 | 4.38 | below the threshold | below the threshold | below the threshold | below the threshold | 4.72 | below the threshold | below the threshold | APIAGFSSFV [SDK2, Q58EX2] | pKd [21]: 4.61; pKd [22]: 4.06; pKd [23]: below the threshold; pKd [24]: below the threshold; pKd [25]: below the threshold; pKd [26]: below the threshold; pKd [27]: 4.07; pKd [28]: below the threshold
5 | 4.23 | below the threshold | below the threshold | below the threshold | below the threshold | below the threshold | below the threshold | below the threshold | below the threshold | below the threshold | below the threshold | 4.3 | 5.39 | below the threshold | below the threshold | below the threshold | below the threshold | below the threshold | below the threshold | below the threshold | EDPRVEVTQF [SLC22A9, Q8IVM8] | pKd [21]: below the threshold; pKd [22]: below the threshold; pKd [23]: below the threshold; pKd [24]: 4.75; pKd [25]: below the threshold; pKd [26]: below the threshold; pKd [27]: below the threshold; pKd [28]: below the threshold
